Laboratory results as given in patent publication US20150190466.

Target: T1, N-terminus tagged ILDR2
T1 sequence (Q71H61 whole entry, species assumed, looked up): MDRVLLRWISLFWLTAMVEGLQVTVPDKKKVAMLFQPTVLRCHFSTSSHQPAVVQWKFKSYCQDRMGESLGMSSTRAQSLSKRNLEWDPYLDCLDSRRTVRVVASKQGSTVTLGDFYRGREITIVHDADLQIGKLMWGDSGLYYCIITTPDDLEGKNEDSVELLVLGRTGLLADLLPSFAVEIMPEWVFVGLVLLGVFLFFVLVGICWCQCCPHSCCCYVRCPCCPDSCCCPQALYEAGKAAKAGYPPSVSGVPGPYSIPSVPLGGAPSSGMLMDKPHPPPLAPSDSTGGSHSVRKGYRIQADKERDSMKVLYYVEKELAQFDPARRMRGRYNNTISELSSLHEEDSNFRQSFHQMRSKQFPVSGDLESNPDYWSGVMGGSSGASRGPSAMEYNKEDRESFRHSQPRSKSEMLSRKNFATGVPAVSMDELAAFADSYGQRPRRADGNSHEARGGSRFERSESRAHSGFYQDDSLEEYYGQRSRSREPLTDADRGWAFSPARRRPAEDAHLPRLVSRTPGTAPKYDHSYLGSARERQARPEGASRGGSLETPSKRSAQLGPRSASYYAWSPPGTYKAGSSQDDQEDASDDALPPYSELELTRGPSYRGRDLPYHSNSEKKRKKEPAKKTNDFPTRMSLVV

B1: V5-tagged PERK (protein)
chain: VAPARSLLAPASETVFGLGAAAAPTSAARVPAVATAEVTVEDAEALPAAAGEPESRATEPDDDVELRPRGRSLVIISTLDGRIAALDAENDGKKQWDLDVGSGSLVSSSLSKPEVFGNKMIIPSLDGDLFQWDRDRESMEAVPFTVESLLESSYKFGDDVVLVGGKSLITYGLSAYSGKLRYICSALGCRRWDSDEMEEEEDILLLQRTQKTVRAVGPRSGSEKWNFSVGHFELRYIPDMETRAGFIESTFKPGGNKEDSKIISDVEEQEATMLDTVIKVSVADWKVMAFSRKGGRLEWEYQFCTPIASAWLVRDGKVIPISLFDDTSYTASEEALGDEEDIVEAARGATENSVYLGMYRGQLYLQSSVRVSEKFPTSPKALESVNGENAIIPLPTIKWKPLIHSPSRTPVLVGSDEFDKCLSNDKYSHEEYSNGALSILQYPYDNGYYLPYYKRERNKRSTQITVRFLDSPHYSKNIRKKDPILLLHWWKEIFGTILLCIVATTFIVRRLFHPQPHRQRKESETQCQTESKYDSVSADVSDNSWNDMKYSGYVSRYLTDFEPIQCMGRGGFGVVFEAKNKVDDCNYAIKRIRLPNRELAREKVMREVKALAKLEHPGIVRYFNAWLETPPEKWQEEMDEIWLKDESTDWPLSSPSPMDAPSVKIRRMDPFSTKEQIEVIAPSPERSRSFSVGISCGQTSSSESQFSPLEFSGTDCGDNSDSADAAYNLQDSCLTDCEDVEDGTVDGNDEGHSFELCPSEASPYTRSREGTSSSIVFEDSGCGNASSKEEPRGNRLHDGNHYVNKLTDLKCSSSRSSSEATTLSTSPTRPTTLSLDFTKNTVGQLQPSSPKVYLYIQMQLCRKENLKDWMNRRCSLEDREHGVCLHIFLQIAEAVEFLHSKGLMHRDLKPSNIFFTMDDVVKVGDFGLVTAMDQDEEEQTVLTPMPAYATHTGQVGTKLYMSPEQIHGNNYSHKVDIFSLGLILFELLYPFSTQMERVRILTDVRNLKFPLLFTQKYPQEHMMVQDMLSPSPTERPEATDIIENAIFENLEFPGKTVLRQRSRSMSSSGTKHSRQPSCSYSPLPGN
  cleavage of ILDR2 (western blot of ILDR2 fragments after co-transfection): N-terminus-tagged ILDR2 was also decreased by PERK, but cleaved ILDR2 was not detected
